According to US6750197B1, “Activators of endothelial nitric oxide synthase” (Rensselaer Polytechnic Institute, priority 1996, dated 2004):

Key:
INOS = INOS (Rattus norvegicus, UniProt Q06518); assay: INOS activity by oxidation of ferrous myoglobin by product NO; type: biochemical; set-up: unit not given here; conditions: for INOS Activity 0.1 mg/ml: peptide 0.1 mg/ml, no peptide: 14.9 ± .56; for INOS activity 0.3 mg/ml: peptide 0.3 mg/ml, no peptide: 12.3 ± .19; for INOS Activity 1.0 mg/ml: peptide 1.0 mg/ml, no peptide: 13.0 ± .23
Protocol: (§1) JX series polypeptides are approximately 30-mers derived from ENOS and NNOS inhibitory polypeptides. B058 series are shorter (6-mers to 15-mers) peptides derived from flanking loops or from shorter segments of inhibitory polypeptides. CAM binding data represents counts from radiolabeled CAM trapped on a membrane by NNOS adhesion. INOS activity was assayed by measuring oxidation of ferrous myoglobin by product NO.

NNOS = NNOS (Rattus norvegicus, UniProt P29476); assay: CAM binding: radiolabeled CAM trapped on a membrane by NNOS adhesion; conditions: no peptide: 774 ± 40
Protocol: as §1

NOS [1] = assay: Radioligand binding of [125I]-calmodulin to NOS; set-up: scale not given here; conditions: ligand 1 nM, 15 minutes at 23° C., mean ± SEM
Protocol: (§2) NOS activity measurements were performed using recombinant rat NNOS (purified from overexpressing HEK293 cells), recombinant bovine ENOS (purified from overexpressing E. coli) or native INOS (from immunostimulant-activated rat aortic smooth muscle cells). Activity was determined with 1-20 pmole of NOS using a kinetic 96-well microtiter plate assay based on the kinetics of NADPH consumption (NNOS and ENOS) or Fe^2+-myoglobin oxidation. Radioligand binding was performed after incubation of 1-2 pmole of NOS for 15 minutes at 23° C. with either Bolton-Hunter labelled [125I]-calmodulin (1 nM) or [3H]-N-nitro-L-arginine (200 pM) and the indicated peptides. Values are means ±SEM of triplicate determinations.

recombinant bovine ENOS = biological target: T1, recombinant bovine ENOS (Bos taurus, UniProt P29473); assay: NOS activity, kinetic 96-well microtiter plate assay, NADPH consumption; type: biochemical; conditions: mean ± SEM, triplicate
T1 construct: made in house; host or cells: E. coli
T1 sequence (P29473 1-1205): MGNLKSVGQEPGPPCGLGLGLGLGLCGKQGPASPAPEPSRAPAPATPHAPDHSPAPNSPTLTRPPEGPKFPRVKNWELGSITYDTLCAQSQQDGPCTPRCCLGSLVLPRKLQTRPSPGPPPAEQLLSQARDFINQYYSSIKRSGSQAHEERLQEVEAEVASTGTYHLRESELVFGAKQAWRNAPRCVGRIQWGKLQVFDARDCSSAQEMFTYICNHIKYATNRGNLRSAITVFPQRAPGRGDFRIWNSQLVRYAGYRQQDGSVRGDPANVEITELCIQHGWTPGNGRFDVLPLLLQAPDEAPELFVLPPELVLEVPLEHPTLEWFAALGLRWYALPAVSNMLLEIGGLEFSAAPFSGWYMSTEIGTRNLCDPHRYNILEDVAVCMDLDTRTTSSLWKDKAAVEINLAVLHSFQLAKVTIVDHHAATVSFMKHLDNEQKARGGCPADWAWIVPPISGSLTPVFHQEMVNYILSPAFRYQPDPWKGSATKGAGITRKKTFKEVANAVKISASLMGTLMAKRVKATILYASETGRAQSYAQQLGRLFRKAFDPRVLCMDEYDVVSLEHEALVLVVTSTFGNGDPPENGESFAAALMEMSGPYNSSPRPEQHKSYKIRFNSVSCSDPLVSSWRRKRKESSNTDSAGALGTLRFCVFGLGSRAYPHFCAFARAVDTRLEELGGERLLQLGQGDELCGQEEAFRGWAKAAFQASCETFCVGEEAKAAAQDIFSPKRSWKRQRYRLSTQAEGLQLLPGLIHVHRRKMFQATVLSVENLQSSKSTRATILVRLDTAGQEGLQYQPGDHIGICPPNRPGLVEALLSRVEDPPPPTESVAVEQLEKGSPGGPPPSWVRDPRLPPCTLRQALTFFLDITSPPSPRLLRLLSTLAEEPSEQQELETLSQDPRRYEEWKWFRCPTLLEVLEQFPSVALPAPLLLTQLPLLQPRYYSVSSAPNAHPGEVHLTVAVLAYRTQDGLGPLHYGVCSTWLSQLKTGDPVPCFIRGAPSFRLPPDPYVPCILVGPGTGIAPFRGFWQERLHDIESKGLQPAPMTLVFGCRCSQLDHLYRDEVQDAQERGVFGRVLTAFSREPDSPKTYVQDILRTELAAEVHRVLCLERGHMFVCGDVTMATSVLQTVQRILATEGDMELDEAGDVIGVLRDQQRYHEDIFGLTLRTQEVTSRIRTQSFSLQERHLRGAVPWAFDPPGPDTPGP
Protocol: as §2

recombinant rat NNOS = biological target: T2, recombinant rat NNOS (Rattus norvegicus, UniProt P29476); assay: as above; type: biochemical; conditions: mean ± SEM, triplicate
T2 construct: made in house; host or cells: HEK293 cells
Protocol: as §2

NOS [2] = assay: Radioligand binding of [3H]-N-nitro-L-arginine to NOS; set-up: scale not given here; conditions: ligand 200 pM, 15 minutes at 23° C., mean ± SEM
Protocol: as §2

[3] = biological target: T3, native INOS (from immunostimulant-activated rat aortic smooth muscle cells) (Rattus norvegicus, UniProt Q06518); assay: NOS activity, kinetic 96-well microtiter plate assay, Fe2+-myoglobin oxidation; type: biochemical; conditions: mean ± SEM, triplicate
T3 construct: endogenous in cells
Protocol: as §2

T2 sequence (P29476 whole entry): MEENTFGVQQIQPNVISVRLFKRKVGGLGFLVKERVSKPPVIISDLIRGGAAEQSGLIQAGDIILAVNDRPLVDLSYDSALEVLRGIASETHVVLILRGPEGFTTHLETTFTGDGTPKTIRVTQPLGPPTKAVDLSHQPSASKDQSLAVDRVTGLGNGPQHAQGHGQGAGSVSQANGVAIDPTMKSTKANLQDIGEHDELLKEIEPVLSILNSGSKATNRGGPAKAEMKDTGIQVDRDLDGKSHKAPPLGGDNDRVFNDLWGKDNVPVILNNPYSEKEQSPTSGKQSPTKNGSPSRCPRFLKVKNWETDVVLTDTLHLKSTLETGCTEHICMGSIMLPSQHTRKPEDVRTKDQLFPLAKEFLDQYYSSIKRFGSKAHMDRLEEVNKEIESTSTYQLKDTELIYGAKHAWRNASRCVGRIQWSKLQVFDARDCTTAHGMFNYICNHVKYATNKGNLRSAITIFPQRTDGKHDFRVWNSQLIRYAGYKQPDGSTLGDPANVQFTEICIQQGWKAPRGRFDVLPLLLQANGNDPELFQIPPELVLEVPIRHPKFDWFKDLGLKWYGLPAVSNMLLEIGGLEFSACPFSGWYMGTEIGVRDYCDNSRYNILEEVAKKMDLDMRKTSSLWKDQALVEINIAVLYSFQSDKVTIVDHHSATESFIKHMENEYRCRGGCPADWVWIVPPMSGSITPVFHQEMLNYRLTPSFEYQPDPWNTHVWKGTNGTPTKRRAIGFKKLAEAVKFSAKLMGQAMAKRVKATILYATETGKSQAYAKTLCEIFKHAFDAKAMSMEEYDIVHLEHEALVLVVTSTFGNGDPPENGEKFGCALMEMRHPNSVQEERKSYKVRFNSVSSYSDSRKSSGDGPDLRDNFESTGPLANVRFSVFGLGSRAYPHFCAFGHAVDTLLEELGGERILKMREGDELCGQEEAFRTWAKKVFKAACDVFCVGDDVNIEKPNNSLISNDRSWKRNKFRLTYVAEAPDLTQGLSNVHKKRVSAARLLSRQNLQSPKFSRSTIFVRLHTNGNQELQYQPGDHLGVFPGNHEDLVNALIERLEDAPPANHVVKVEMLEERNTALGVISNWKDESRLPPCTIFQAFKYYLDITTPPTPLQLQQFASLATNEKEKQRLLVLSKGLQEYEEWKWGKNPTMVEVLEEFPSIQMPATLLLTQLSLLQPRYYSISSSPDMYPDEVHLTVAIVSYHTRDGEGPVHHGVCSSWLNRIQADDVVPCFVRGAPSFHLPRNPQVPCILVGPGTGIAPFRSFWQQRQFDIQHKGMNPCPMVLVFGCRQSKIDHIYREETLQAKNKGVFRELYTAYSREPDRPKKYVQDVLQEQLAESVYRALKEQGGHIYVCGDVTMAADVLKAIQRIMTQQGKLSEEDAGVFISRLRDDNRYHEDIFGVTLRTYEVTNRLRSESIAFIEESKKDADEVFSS
Chain of NNOS (P29476 whole entry): as above

Row | Substance | INOS Activity 0.1 mg/ml (INOS) | NNOS CAM Binding (NNOS) [counts] | Ligand binding to NOS [125I]-CAM (NOS [1]; peptide 300 μg/ml) | NOS Activity (% of control) ENOS (recombinant bovine ENOS; peptide 300 μg/ml) | NOS Activity (% of control) NNOS (recombinant rat NNOS; peptide 300 μg/ml) | INOS activity 0.3 mg/ml (INOS) | INOS Activity 1.0 mg/ml (INOS) | Ligand binding to NOS [3H]-NHA (NOS [2]; peptide 300 μg/ml) | NOS Activity (% of control) INOS ([3]; peptide 300 μg/ml) | Ligand binding to NOS [125I]-CAM (NOS [1]; peptide 100 μg/ml) | NOS Activity (% of control) ENOS (recombinant bovine ENOS; peptide 100 μg/ml) | NOS Activity (% of control) NNOS (recombinant rat NNOS; peptide 100 μg/ml) | Ligand binding to NOS [3H]-NHA (NOS [2]; peptide 100 μg/ml) | NOS Activity (% of control) INOS ([3]; peptide 100 μg/ml)
1 | AVDTRLEELGGERT [BO58-01, 35] | 15.0 ± .73 | 986 ± 58 |  |  |  |  |  |  |  |  |  |  |  | 
2 | SSPRPEQHKSYKIRFNSVSCSDPLVSSWRRKRKESS [JX2, 14] | 13.1 ± .11 | 1356 ± 46 | 0.0 ± 7.4 | 57.2 ± 7.5 % of control | 30.4 ± 1.7 % of control | 7.7 ± .11 | 3.2 ± .11 | 116.3 ± 1.9 | 62.2 ± 2.8 % of control |  |  |  |  | 
3 | RPEQHKSYKIRF [BO58-10, 17] | 14.6 ± .02 | 1339 ± 49 |  |  |  |  |  |  |  | 24.7 ± 2.2 | 80.5 ± 2.0 % of control | 54.5 ± 1.8 % of control | 115.0 ± 8.6 | 99.7 ± 5.7 % of control
4 | AVDTLLEELGGERT [BO58-02, 22] | 15.1 ± .03 | 953 ± 80 |  |  |  |  |  |  |  |  |  |  |  | 
5 | DIVHLEHES [BO58-05, 25] | 14.6 ± .03 | 952 ± 52 |  |  |  |  |  |  |  |  |  |  |  | 
6 | WRRKRK [BO58-07, 12] | 13.6 ± .31 | 1749 ± 40 |  |  |  |  |  |  |  | 6.7 ± 3.6 | 24.0 ± 2.8 % of control | 11.0 ± 3.3 % of control | 91.7 ± 5.1 | 91.1 ± 5.7 % of control
7 | KASTLEEEQ [BO58-06, 26] | 15.3 ± .32 | 951 ± 100 |  |  |  |  |  |  |  |  |  |  |  | 
8 | DDVVSLEHET [BO58-04, 24] | 15.8 ± .73 | 903 ± 57 |  |  |  | 14.9 ± .56 |  |  |  |  |  |  |  | 
9 | QHKSYKIRFNSVSCSDPLVSSWRRKRKE [JX3, 15] | 12.9 ± .32 | 674 ± 100 | 0.0 ± 4.8 | 40.2 ± 4.0 % of control | 28.2 ± 0.9 % of control | 7.9 ± .11 | 2.9 ± .32 | 122.4 ± 1.0 | 64.3 ± 3.2 % of control |  |  |  |  | 
10 | QEERKSYKVRF [BO58-09, 16] | 14.7 ± .28 | 686 ± 43 |  |  |  |  |  |  |  | 82.7 ± 1.1 | 93.6 ± 2.3 % of control | 102.0 ± 2.1 % of control | 118.9 ± 4.1 | 101.1 ± 3.7 % of control
11 | DIDQKLSHLGASQT [BO58-03, 23] | 14.4 ± .27 | 863 ± 19 |  |  |  |  |  |  |  |  |  |  |  | 
12 | QEERKSYKVRFNSVSSYSDSQKSSGDGPDL [JX4, 19] | 14.1 ± .57 | 659 ± 41 | 82.7 ± 1.1 | 80.2 ± 3.8 % of control | 103.0 ± 1.3 % of control | 10.4 ± .57 | 8.4 ± .57 | 95.7 ± 4.7 | 84.1 ± 3.5 % of control |  |  |  |  | 
13 | SDSRKSSGDGPDLR [BO58-11, 18] | 14.7 ± .94 | 908 ± 56 |  |  |  |  |  |  |  | 89.2 ± 6.2 | 102.6 ± 4.1 % of control | 98.4 ± 1.9 % of control | 119.2 ± 3.4 | 99.7 ± 2.8 % of control
